Test results reported in paper PMC11259171, “Huntingtin is an RNA binding protein and participates in NEAT1-mediated paraspeckles”.

Target: mHTT-HAP40 Q54 (expanded mutant huntingtin with HAP40) (UniProt P42858;P23610 1-38+=QQQQQQQQQQQQQQQQQQQQQQQQQQQQQQQQQ+39-3142;1-371, internal_change)
Test: fluorescence polarization (method implied); 20 mM Hepes pH 7.4, 50 mM KCl, 2 mM MgCl2, 1 mM TCEP, 2.5% glycerol, 0.005% Tween 20; SPR 20 C, EMSA on ice, FP 10 min (temperature not stated)
Details: protein: recombinant; copies: 1;1; label: 5'-FAM (FP, EMSA); biotin (SPR)

mHTT-HAP40 Q54 (expanded mutant huntingtin with HAP40), sequence (P42858 other isoform, or with tags, fused parts or gaps | mutant, chain 1 of 2): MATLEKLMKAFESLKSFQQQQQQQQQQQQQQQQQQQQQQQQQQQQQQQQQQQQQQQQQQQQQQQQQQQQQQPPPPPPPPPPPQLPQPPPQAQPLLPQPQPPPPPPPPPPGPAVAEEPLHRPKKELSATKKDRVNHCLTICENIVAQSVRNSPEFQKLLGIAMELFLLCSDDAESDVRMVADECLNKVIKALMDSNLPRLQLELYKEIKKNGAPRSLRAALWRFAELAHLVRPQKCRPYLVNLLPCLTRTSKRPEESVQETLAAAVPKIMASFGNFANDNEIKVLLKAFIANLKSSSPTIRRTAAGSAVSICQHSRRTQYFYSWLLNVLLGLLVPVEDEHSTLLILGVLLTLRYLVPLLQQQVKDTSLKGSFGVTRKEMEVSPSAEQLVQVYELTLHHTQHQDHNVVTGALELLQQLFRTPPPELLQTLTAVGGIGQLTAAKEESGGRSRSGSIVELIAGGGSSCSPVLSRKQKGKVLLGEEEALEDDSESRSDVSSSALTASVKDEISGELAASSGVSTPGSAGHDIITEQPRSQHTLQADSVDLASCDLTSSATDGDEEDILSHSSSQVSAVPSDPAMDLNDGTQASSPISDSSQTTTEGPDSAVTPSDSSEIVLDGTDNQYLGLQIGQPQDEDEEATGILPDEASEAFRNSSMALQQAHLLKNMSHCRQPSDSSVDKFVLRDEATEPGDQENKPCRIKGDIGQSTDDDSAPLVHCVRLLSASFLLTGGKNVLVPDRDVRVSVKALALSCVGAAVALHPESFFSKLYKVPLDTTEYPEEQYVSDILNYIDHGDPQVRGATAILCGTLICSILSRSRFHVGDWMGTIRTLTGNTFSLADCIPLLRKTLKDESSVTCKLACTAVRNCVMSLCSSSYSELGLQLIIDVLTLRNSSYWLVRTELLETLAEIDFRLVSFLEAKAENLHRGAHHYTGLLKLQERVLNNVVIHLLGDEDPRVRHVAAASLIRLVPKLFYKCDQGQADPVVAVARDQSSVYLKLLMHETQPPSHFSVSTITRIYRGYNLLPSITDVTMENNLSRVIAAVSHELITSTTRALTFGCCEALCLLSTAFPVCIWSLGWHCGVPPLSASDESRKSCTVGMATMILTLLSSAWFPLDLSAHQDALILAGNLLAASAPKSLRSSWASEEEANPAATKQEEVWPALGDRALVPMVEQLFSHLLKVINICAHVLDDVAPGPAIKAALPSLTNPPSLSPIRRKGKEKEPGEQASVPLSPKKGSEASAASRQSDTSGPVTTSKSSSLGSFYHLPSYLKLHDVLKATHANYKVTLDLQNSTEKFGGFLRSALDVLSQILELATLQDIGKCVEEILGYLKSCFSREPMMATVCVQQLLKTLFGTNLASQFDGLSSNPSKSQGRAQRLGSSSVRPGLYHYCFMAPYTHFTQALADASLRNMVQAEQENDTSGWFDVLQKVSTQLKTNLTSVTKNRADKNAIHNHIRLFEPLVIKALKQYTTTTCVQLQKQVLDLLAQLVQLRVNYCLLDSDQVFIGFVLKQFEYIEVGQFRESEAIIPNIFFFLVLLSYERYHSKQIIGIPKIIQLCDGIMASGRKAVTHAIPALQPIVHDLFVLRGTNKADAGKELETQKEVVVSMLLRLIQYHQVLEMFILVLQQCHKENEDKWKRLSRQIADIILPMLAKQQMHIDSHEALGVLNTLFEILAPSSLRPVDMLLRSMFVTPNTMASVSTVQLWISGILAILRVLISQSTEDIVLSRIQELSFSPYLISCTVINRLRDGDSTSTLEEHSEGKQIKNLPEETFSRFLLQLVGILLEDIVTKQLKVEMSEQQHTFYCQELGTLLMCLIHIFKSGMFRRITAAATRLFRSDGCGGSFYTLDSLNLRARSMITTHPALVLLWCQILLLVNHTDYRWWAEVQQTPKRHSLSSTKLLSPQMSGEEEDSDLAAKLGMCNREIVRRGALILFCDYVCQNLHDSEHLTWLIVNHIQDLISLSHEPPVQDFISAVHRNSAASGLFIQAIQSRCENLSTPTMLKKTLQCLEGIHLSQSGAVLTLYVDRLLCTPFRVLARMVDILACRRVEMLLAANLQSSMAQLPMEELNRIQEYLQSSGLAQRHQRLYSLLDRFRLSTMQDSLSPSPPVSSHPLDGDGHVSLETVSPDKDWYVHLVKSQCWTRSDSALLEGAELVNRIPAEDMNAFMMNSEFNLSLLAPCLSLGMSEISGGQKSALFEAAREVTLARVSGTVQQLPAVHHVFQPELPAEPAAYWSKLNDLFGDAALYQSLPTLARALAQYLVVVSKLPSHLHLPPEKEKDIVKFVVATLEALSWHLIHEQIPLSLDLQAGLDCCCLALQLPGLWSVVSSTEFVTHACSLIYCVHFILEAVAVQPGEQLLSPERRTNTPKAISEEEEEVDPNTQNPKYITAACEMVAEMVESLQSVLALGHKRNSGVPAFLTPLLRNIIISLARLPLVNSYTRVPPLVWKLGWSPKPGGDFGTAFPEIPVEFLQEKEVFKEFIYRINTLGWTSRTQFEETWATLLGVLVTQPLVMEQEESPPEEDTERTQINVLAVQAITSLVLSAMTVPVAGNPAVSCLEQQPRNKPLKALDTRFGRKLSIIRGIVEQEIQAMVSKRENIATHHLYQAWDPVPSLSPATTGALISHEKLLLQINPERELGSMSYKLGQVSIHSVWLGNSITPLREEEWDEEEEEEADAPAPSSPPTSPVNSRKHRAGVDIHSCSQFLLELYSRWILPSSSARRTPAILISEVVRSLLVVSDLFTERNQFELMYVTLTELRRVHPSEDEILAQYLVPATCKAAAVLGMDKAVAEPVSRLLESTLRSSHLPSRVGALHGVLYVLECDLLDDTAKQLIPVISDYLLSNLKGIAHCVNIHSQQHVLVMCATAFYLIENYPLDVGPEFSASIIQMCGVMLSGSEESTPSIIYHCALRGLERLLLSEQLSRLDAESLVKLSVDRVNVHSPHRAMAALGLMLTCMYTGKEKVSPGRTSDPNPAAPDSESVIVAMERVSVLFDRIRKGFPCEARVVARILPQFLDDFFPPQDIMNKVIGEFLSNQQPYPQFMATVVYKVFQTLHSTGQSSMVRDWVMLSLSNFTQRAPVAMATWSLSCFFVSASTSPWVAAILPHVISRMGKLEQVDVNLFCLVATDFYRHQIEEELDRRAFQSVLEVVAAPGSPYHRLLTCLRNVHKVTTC
mHTT-HAP40 Q54 (expanded mutant huntingtin with HAP40), sequence (P23610 whole entry, change not shown, chain 2 of 2): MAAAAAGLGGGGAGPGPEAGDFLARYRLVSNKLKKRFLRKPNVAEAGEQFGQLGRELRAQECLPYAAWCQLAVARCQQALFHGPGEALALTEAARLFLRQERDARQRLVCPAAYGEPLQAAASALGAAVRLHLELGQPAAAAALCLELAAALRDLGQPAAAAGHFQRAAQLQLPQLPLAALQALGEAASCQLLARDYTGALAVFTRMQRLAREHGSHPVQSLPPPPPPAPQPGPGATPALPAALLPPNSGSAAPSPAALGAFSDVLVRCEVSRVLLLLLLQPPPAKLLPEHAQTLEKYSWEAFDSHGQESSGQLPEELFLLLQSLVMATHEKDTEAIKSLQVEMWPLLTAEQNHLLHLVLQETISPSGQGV

B1: 100-mer random ssRNA (ssRNA)
RNA: CACGUAUGAGAAGGUAUUUGCCCGAUAAUCAAUACCCCAGGCUUCUAACUUUUUCCACUCGCUUGAGCCGGCUAGGCCUUUCUGCCCGAAGUUUCGAUGG
**Q.** B1 was tested. Which Kd did it give?
**A.** 500 ± 300 nM
